Assay results reported in patent publication US20250002576A1.

Columns and labels:
[1] = biological target: lysozyme; test: non-specific binding ELISA, lysozyme immobilized
[2] = biological target: human Claudin 18.2 (human) (UniProt P56856); test: flow cytometry, antibody dilution series on hCLDN18.2-expressing MiaPaCa-2 cells

normalized signal (fluorescence intensity normalized to trastuzumab) [1]: 0.9
EC50 [2]: 8.63 nM
Substance: claudiximab (antibody)
